The values below are quoted from earlier work in patent US7452531B2, “Compositions and methods for tumor-targeted delivery of effector molecules” (Vion Pharmaceuticals, Inc., priority 1999, dated 2008).

This data set has as its system primary tumors. The following applies: 100 mg/kg/day.

Turning to angiostatin, the toxic side effects entry is listed as “without toxic side effects” and the tumor growth entry is listed as “strong inhibition of tumor growth”.
